Source: PMC11169542, “A probe for NIR-II imaging and multimodal analysis of early Alzheimer’s disease by targeting CTGF” (Nature Communications, 2024)
Ends that are not written are not given here.

How the values were obtained:
[1] = Biodistribution of DGC in organs by ex vivo NIR-II imaging; parameters: species or system APP/PS1 and wild-type mice; conditions: ex vivo NIR-II observation of major organs
Procedure: Mice were then perfused intracardially with saline and 4% PFA, and major organs (including the brain, heart, liver, spleen, lung, and kidney were isolated. The dissociated brains were performed NIR-II imaging ex vivo using the same method as in vivo imaging (n = 3). All isolated organs were also imaged by the NIR-II imaging system (λ ex = 808 nm, 1000 nm longpass (LP) filter (Edmund Optics)). And then, the brains were kept in 4% PFA overnight and embedded with paraffin. Sections with 5-μm thickness were cut and analyzed by immunostaining with antibodies to CTGF (dilution 1: 50, Abcam, Cat#ab6992), GFAP (dilution 1:100, Proteintech, Cat#16825-1-AP), CD31 (dilution 1:200, Beyotime, Cat#AF6408), Neun (dilution 1:300, abcam, Cat# ab177487), and Iba 1 (dilution 1:50, Beyotime, Cat# AF7143), respectively.

CTX TNA2 cells = assay: Cytotoxicity of DGC (CCK-8); assay type: cell-based; parameters: key to Cell viability: viability relative to control cells (control = 1); conditions: for Cell viability: 24 h, CCK-8, normalized to control
Procedure: U87MG, SH-SY5Y, and CTX TNA2 cells were seeded into 96-well plates at a density of 5 × 10^3 cells per well and were incubated at 37 °C for 24 h. Then, the cells were treated with 5, 10, 20, 50, 100, and 500 µM DGC for 24 h. Next, 10 µL of a colorimetric Cell Counting Kit (CCK-8) reagent diluted with 100 µL medium was added to each well, and incubated for 30 min, The absorbance at 450 nm was measured using a microplate reader (Molecular Devices, San Jose, CA, USA). The relative viability was normalized to control cells. The experiment was performed in triplicates.

[2] = Effect of DGC on blood biochemistry of mice; assay type: in vivo, C57BL/6J mice; conditions: DGC group, mean of 3 mice
Text: In order to clarify the NIR-II signal in AD brains when in vivo imaging is arisen from the DGC probe that bound to CTGF, we selected 3-month-old APP/PS1 mice representing early-stage AD and the age-matched WT mice as control to performed ex vivo multimodal analysis of the brain sections. […] To exclude the influence of vascular retention, we emptied the cerebral vessels by cardiac perfusion and performed ex vivo imaging of the brains. […] For brain sections made from AD mice after tail vein injection of DGC, the red fluorescence observation and LA-ICP-TOF-MS of DGC, as well as a POD-like catalysis test were performed. […] In Fig. 6c, the colocalization of DGC (red fluorescence) and CTGF (green fluorescence) on the ex vivo brain sections confirmed the specificity of DGC targeting CTGF in vivo. To further identify the cellular target of DGC in the brain of APP/PS1 mice, we carried out immunofluorescence staining on the ex vivo brain sections after tail vein injection of DGC where cell-specific fluorescent antibodies for microglia (Iba 1), neurons (NeuN), vascular endothelial cell (CD31) and reactive astrocytes (GFAP) were applied. In Fig. 6d, […] co-localizes with GFAP-positive active astrocytes and CD31-positive microvessels, but not with neurons or microglia. […] The biosafety of DGC in C57BL/6J mice under the NIR-II imaging condition was evaluated by blood tests (blood cells and biochemical analysis) and organ pathological analysis (H&E staining).

CTGF = assay: DGC labelling of CTGF in cells by fluorescence imaging (CLSM); assay type: cell-based; conditions: for FL Intensity of DGC per cell: 55 μM DGC 60 min, CLSM
Procedure: The U87MG, SH-SY5Y, and CTX TNA2 cells in confocal dishes were fixed with 4% paraformaldehyde solution (PFA) for 30 min. Next, the cells were washed with cold PBS three times, and 3% BSA in PBS solution was introduced to the cells to block the nonspecific recognition sites. Then, the cells were incubated with 55 μM DGC for 60 min at room temperature. The control cells were only incubated with a culture medium. Next, the nuclei were stained with 5 μg/mL DAPI solution for 5 min. Finally, the cells were observed by a confocal laser scanning microscope (CLSM, PerkinElmer, USA). The fluorescence intensity of each cell was measured by ImageJ software, the red channel was extracted by clicking Split Channels, and the red fluorescent region, except the nucleus was selected by Freehand selections. Then the average fluorescence intensity in this region was measured and recorded for statistical analysis.
To further determine the specificity of DGC to CTGF, immunofluorescence staining was performed with CTGF antibodies to determine the location of CTGF in cells. First, U87MG cells in confocal dishes were fixed with 4% PFA for 30 min. Next, the cells were washed with PBS three times, and 3% bovine serum albumin (BSA) in PBS solution. Then, the cells were incubated with CTGF antibody (dilution 1:100, Abcam, Cat#ab6992) in PBS for 4 h at 4 °C, and FITC-labeled Goat Anti-Rabbit IgG (H + L) (1: dilution 1:200, Bioss, Cat#bs-0370R-FITC) in 3% BSA solution was added to the cells for another 30 min at 37 °C in the dark. Subsequently, 55 μM DGC were incubated with the cells for 1 h. Finally, the cells were stained with DAPI for 5 min and washed with PBS before the CLSM image (Nikon).
Moreover, a binding site blocking study was performed to confirm the specificity of the DGC to CTGF. First, U87MG cells were fixed with 4% PFA. Then, a PBS solution containing 3% BSA was used to block the nonspecific recognition sites for 30 min. After BSA blocking, the cells were pre-incubated with 5 mM of free DAG peptide for 1 h, followed by 55 μM DGC added for 60 min. Then, DAPI (5 μg/mL) was added to U87MG cells to stain the nuclei. Finally, the cells were imaged by the CLSM system.

**Q.** Which “metabolism and excretion route” value [1] does the source give for “DGC: CTGF-targeting peptide-coated gold nanocluster: one Au26 gold nanocluster coated by eight DAG cyclic peptides, NIR-II and red fluorescence (CDAGRKQKC; also: cyclic peptide, ring not given here, eight peptides on one Au26 nanocluster via Cys Au-S bonds)” here?
**A.** mainly metabolized by the liver and excreted through the kidney and liver

**Q.** And the Cell viability (CTX TNA2 cells; 5 μM (Au content), replicate 1)?
**A.** 1.236

**Q.** What about the Cell viability (CTX TNA2 cells; 5 μM (Au content), replicate 2) of the same substance?
**A.** 1.185

**Q.** What about the Cell viability (CTX TNA2 cells; 5 μM (Au content), replicate 3) of the same substance?
**A.** 1.252

**Q.** And the Cell viability (CTX TNA2 cells; 10 μM (Au content), replicate 1)?
**A.** 1.248

**Q.** And the Cell viability (CTX TNA2 cells; 10 μM (Au content), replicate 2)?
**A.** 1.23

**Q.** What about the Cell viability (CTX TNA2 cells; 10 μM (Au content), replicate 3) of the same substance?
**A.** 1.328

**Q.** And the Cell viability (CTX TNA2 cells; 20 μM (Au content), replicate 1)?
**A.** 1.233

**Q.** What about the Cell viability (CTX TNA2 cells; 20 μM (Au content), replicate 2) of the same substance?
**A.** 1.3

**Q.** And the Cell viability (CTX TNA2 cells; 20 μM (Au content), replicate 3)?
**A.** 1.347

**Q.** What about the Cell viability (CTX TNA2 cells; 50 μM (Au content), replicate 1) of the same substance?
**A.** 1.269

**Q.** What about the Cell viability (CTX TNA2 cells; 50 μM (Au content), replicate 2) of the same substance?
**A.** 1.237

**Q.** And the Cell viability (CTX TNA2 cells; 50 μM (Au content), replicate 3)?
**A.** 1.251

**Q.** And the Cell viability (CTX TNA2 cells; 100 μM (Au content), replicate 1)?
**A.** 1.349

**Q.** And the Cell viability (CTX TNA2 cells; 100 μM (Au content), replicate 2)?
**A.** 1.363

**Q.** What about the Cell viability (CTX TNA2 cells; 100 μM (Au content), replicate 3) of the same substance?
**A.** 1.443

**Q.** And the Cell viability (CTX TNA2 cells; 500 μM (Au content), replicate 1)?
**A.** 1.758

**Q.** And the Cell viability (CTX TNA2 cells; 500 μM (Au content), replicate 2)?
**A.** 1.646

**Q.** What about the Cell viability (CTX TNA2 cells; 500 μM (Au content), replicate 3) of the same substance?
**A.** 1.62

**Q.** What about the cytotoxicity (CTX TNA2 cells; DGC incubation 24 h, CCK-8) of the same substance?
**A.** did not cause any obvious cytotoxicity

**Q.** And the “Urea (UREA)” value [2]?
**A.** 9.62 ± 1.25

**Q.** And the “Alanine aminotransferase (ALT)” value ([2]; in U/L (unit assumed))?
**A.** 32.8 ± 4.26

**Q.** And the “Alkaline phosphatase (ALP)” value ([2]; in U/L (unit assumed))?
**A.** 220.7 ± 27.07

**Q.** What about the “Aspartate aminotransferase (AST)” value ([2]; in U/L (unit assumed)) of the same substance?
**A.** 120.2 ± 20.04

**Q.** What about the “Creatinine (CREA)” value ([2]; in µmol/L (unit assumed)) of the same substance?
**A.** 22.67 ± 1.98

**Q.** What about the “labelling of CTGF after blocking with free DAG peptide” value (CTGF; U87MG cells pre-incubated with 5 mM free DAG 1 h, then 55 μM DGC 60 min) of the same substance?
**A.** cannot label CTGF in cells pre-blocked by free DAG peptides

**Q.** And the “co-localization coefficient (Pearson's correlation coefficient) of DGC and CTGF antibody” value (CTGF; U87MG cells, ImageJ)?
**A.** 0.946

**Q.** And the “FL Intensity of DGC per cell” value (CTGF; fixed CTX TNA2 cells, replicate 1)?
**A.** 5.779

**Q.** What about the “FL Intensity of DGC per cell” value (CTGF; fixed CTX TNA2 cells, replicate 2) of the same substance?
**A.** 3.821

**Q.** What about the “FL Intensity of DGC per cell” value (CTGF; fixed CTX TNA2 cells, replicate 3) of the same substance?
**A.** 8.33

**Q.** And the “FL Intensity of DGC per cell” value (CTGF; fixed SH-SY5Y cells, replicate 1)?
**A.** 14.6594

**Q.** And the “FL Intensity of DGC per cell” value (CTGF; fixed SH-SY5Y cells, replicate 2)?
**A.** 16.8684

**Q.** What about the “FL Intensity of DGC per cell” value (CTGF; fixed SH-SY5Y cells, replicate 3) of the same substance?
**A.** 12.4094

**Q.** And the “FL Intensity of DGC per cell” value (CTGF; fixed U87MG cells, replicate 1)?
**A.** 36.9955

**Q.** What about the “FL Intensity of DGC per cell” value (CTGF; fixed U87MG cells, replicate 2) of the same substance?
**A.** 33.5045

**Q.** And the “FL Intensity of DGC per cell” value (CTGF; fixed U87MG cells, replicate 3)?
**A.** 35.4955
